Data as given in patent publication US11529426B2, “Methods and compositions for targeting tissue lesions” (priority 2017, dated 2022).

B1: MabCII: monoclonal antibody to type II collagen from E4-D4 (E4) hybridoma clone; mouse IgG2a heavy chain, kappa light chain; VH/VL SEQ ID NO: 6/14 (antibody, listed as Mus musculus, V domains shown)
VH: EVQLVESGGGLVKPGGSLKVSCEASGFTFSDYGMHWVRQAPEKGLEWVAYISSVSSTIYYADTVEGRFTISRDNVRNTLFLQMTSLRSEDTAMYYCAREGWLPLFAFWGQGTLVTVSA
VL: DIVLTQSHKFMSTSVGDRVSITCKASQDVSITVAWYQQKPGQSPKLLIYSASYRNPGVPDRFTGSGSGTDFNFTISTVQAEDLAVYYCQQYYIIPWTFGGGTKLEFKR

Legend:
[1] = tested on: mechanically loaded mouse knee; assay: Mechanically loaded mouse knee (PTOA), E4 nanosomes: cartilage damage by MabCII680 fluorescence; type: in vivo, C57BL/6 mice; details: intravenous, 100 uM TPCA-1, 3 injections, two-week loading; vs empty nanosomes (Control)
Text: (§1) Targeted nanosomes were generated from lipids and conjugated to purified E4-D4 (E4) monoclonal antibody to type II collagen that was developed from a hybridoma isolated from mice immunized with type II collagen. Briefly, the lipid film which contained dioleoyl-sn-glycero-3-phosphocholine (DOPC), cholesterol, 1,2-distearoyl-sn-glycero-3-phosphoethanolamine-N-[maleimide (polyethylene glycol) 2000] (DSPE-PEG-maleimide) and TPCA-1 was rehydrated with phosphate buffered saline (PBS) and sonicated. The rehydrated lipids were repeatedly extruded through a 200 nm porous membrane to generate 200 nm 1-3 walled nanosomes. The E4 MabCII was thiolated using Traut's reagent, then mixed with the nanosomes for conjugation. […] The E4 MabCII was also conjugated to the near infrared dye XenoLight CF 680 (PerkinElmer) used for the final quantitative imaging of arthritic damage. […]
(§2) At the completion of the two-week loading period, mice were injected retro-orbitally with 100 μL composite mixture of 50 μL of 1 mg/ml E4 monoclonal antibody to type II collagen MabCII680 labeled with Xenolight CF 680 fluorescent dye and 50 μL of MMPSense-750 (Perkin-Elmer, Waltham, Mass.), a substrate that fluoresces when cleaved by MMPs. After 24 hours, the mice were anesthetized and the knee joints were optically scanned for each type of fluorescence using a Lumina XR Imaging System (Perkin Elmer, Waltham, Mass.).

MMPs = assay: Mechanically loaded mouse knee (PTOA), E4 nanosomes: MMP activity by MMPSense-750 fluorescence; type: in vivo, C57BL/6 mice; details: intravenous, 100 uM TPCA-1, 3 injections, two-week loading; vs control nanosomes
Text: as §1, §2

[2] = tested on: mechanically loaded mouse knee; assay: Mechanically loaded mouse knee, D1 2G nanosomes: cartilage damage by MabCII680 fluorescence; type: in vivo, C57BL/6 mice; details: intraarticular 50 μL, 500 μM TPCA-1, 2 injections, two-week loading; vs PBS
Text: Targeted nanosomes were generated from lipids and conjugated to purified D1 2G monoclonal antibody from a hybridoma isolated from mice immunized with type II collagen (MabCII). Briefly, the lipid film which contained 5.2 μmol dioleoyl-sn-glycero-3-phosphocholine (DOPC), 4.5 μmol cholesterol, 0.3 μmol 1,2-distearoyl-sn-glycero-3-phosphoethanolamine-N-[maleimide (polyethylene glycol) 2000] (DSPE-PEG-maleimide) and TPCA-1 was rehydrated with phosphate buffered saline (PBS) and sonicated. The rehydrated lipids were repeatedly extruded through a 200 nm porous membrane to generate 200 nm 1-3 walled nanosomes. The MabCII were thiolated using Traut's reagent, then mixed with the nanosomes for conjugation. After conjugation, the reaction mixture was chromatographed on a Sepharose CL-4B column to separate the free antibodies from the coupled liposomes. […]
as §2, with “of” for “of 1 mg/ml E4”, “(MabCII680)” for “MabCII680”, “XenoFluor” for “Xenolight CF”, “680 (XF680; Caliper)” for “680”, “Mass.)” for “Mass.),”, “XR” for “XR Imaging System”

[3] = tested on: collagen-induced arthritis; details: mice, reference [20]; cited from earlier work
[4] = tested on: exposed type II collagen in articular cartilage explants; assay: Binding of fluorescent avidin/biotinylated reparative cells to cartilage explants pre-incubated with biotinylated antibody (IVIS imaging); set-up: species or system domestic pigs; details: for binding of fluorescent avidin/biotinylated ADSC cells to cartilage explant: biotinylated antibody 1 hr
Procedure: Type II collagen monoclonal antibody (MabCII) at a concentration of 1 mg/mL was buffer exchanged with phosphate buffered saline (PBS). The linking reagent NHS-PEG4-Biotin (Thermo Scientific) was then brought up in distilled water to a recommended 20-fold molar excess of Biotin per mg/mL of MabCII. The biotinylated MabCII sample was then added to a Zeba spin desalting column (Thermo Scientific) column and centrifuged at 1000×g for 2 minutes in order to remove excess biotin reagent. The collected flow-through solution was the purified sample. As a control, irrelevant monoclonal mouse IgG antibody of the same subclass (Isotope Control from R&D Systems, Inc.) was similarly prepared.
The reparative cells (isolated chondrocytes or chondrogenically differentiated ADSCs) previously labeled with a fluorescent dye (Vivotrack 680: PerkinElmer, MA), were re-suspended at 1×10^6 cells/ml in fresh serum-free medium with 250 mM sucrose, 1 mM HEPES, and 1 mM CaCl2. The PE-PEG-Biotin stock solution (1 mM) was then added to the various tubes at 25 μM final concentration and incubated for 60 minutes to allow PE-PEG-Biotin integration into the cell membranes. Neutravidin was dissolved in PBS and added to the PE-PEG-Biotin labeled cells at a final concentration of […] of Neutravidin. The tubes were then allowed to incubate on a rocker platform for 30 minutes at 37° C. for binding. After incubation, the cells were centrifuged, supernatants were discarded, and serum-free medium was added and the cells vortexed ready to incubate with the cartilage explants.
Cartilage explants were harvested from the articular cartilage of femoral condyles of domestic pigs ranging from 25 to 30 kilograms and were punched from cartilage explants taken from the surface of articular cartilage with a 6 mm dermal punch to provide equivalent surface areas. The cartilage explants were divided into two groups for incubation with biotinylated Mab; one group that would be mechanically damaged and one group with no damage (normal). […]

[5] = tested on: type II collagen (Col2a1) expression; assay: Type II collagen gene expression (PCR) of reparative cells bound to devitalized scratched cartilage explants; type: cell-based, pig; details: one week
Procedure: For evaluation of gene expression of the reparative cells attaching to cartilage explants with the two step MabCII, biotin-avidin system described above, cartilage explants were devitalized by freeze thawing and washed three times before incubation with biotinylated MabCII and avidin/biotinylated chondrocytes or avidin/biotinylated chondrogenically differentiated ADSC cells as described above. After washing to remove unbound cells, the cells bound to the explants were incubated for one week in complete F12K culture medium with 10% FCS. The explants were then washed and the RNA extracted with Trizol for quantitative polymerase chain reaction (PCR) for the cartilage specific-type II collagen expression. Quantitative gene expression was analyzed by PCR using primers specific for type II collagen (Col-II) and the housekeeping gene glyceraldehyde-3-phosphate dehydrogenase (GAPDH). Gene expression was calculated as 2^−ΔΔCT after normalization to GAPDH expression. For some experiments gene expression from avidin/biotinylated cells that were incubated in standard tissue culture wells or incubated with cartilage with no antibody for the same period of time were set as 1+/− standard error of the mean (SEM) and compared to same type of cells binding to the cartilage explants.

Row | Molecule | cartilage damage: binding of MabCII680, intensity in region of interest [1] | MMP activity: fluorescence of MMPSense-750 (MMPs) | cartilage damage: binding of MabCII680, intensity in region of interest [2] | proinflammatory mediators in collagen-induced arthritis [3] | binding of isolated articular chondrocytes to cartilage explant ([4]; avidin/biotinylated chondrocytes, data not shown) | binding of fluorescent avidin/biotinylated ADSC cells to cartilage explant ([4]; damaged (scratched) cartilage) | binding of fluorescent avidin/biotinylated ADSC cells to cartilage explant ([4]; normal (unscratched) articular cartilage) | expression of CII relative to cells maintained without cartilage in standard tissue culture ([5]; articular chondrocytes on explants) | type II collagen (Col2a1) gene expression of targeted cells ([5]; avidin/biotinylated ADSC, FIG. 9B) | type II collagen (Col2a1) gene expression of targeted cells ([5]; avidin/biotinylated chondrocytes, FIG. 9A)
1 | NC(=O)Nc1sc(-c2ccc(F)cc2)cc1C(N)=O [TPCA-1, 2-[(aminocarbonyl)amino]-5-(4-fluorophenyl)-3-thiophenecarboxamide] | did not show significant improvement | did not show significant reduction | no improvement | reduce proinflammatory mediators such as TNF-α | – | – | – | – | – | –
2 | B1 | – | – | – | – | same specificity of binding | significant amount of reparative cells binding | not detectable | equivalent | continue to express type II collagen | continue to express type II collagen
